According to the RNAGym collection of RNA variant scans (doi:10.7554/elife.80360):

B1: CPEB3 Ribozyme (parent)
chain: GGGGGCCACAGCAGAAGCGUUCACGUCGCGGCCCCUGUCAGAUUCUGGUGAAUCUGCGAAUUCUGCUGU

Variants of: B1
Assay: self-cleavage, relative activity (ratio to wild type); higher = more cleavage; co-transcriptional
GGGGGCCACGGCAGAAGCGUUCACGUCGCGGGCCCUGUCAGAUUCUGGUGAAUCUGCGAAUUCUGCUGU [A10G C32G] gave a self-cleavage of 0.762.
Work on GGGGGCCACGGCAGAAGCGUUCACGUCGCGGCCCCUGUCAGAUUCUGGUGAAUCUGUGAAUUCUGCUGU [A10G C57U] yielded a self-cleavage of 0.284.
GGGGGCCACGGCAGAAGCGUUCACGUCGCGGCCCCUGUCAGAUUCUGGUGAAUCUGAGAAUUCUGCUGU [A10G C57A] gave a self-cleavage of 0.322.
With GGGGGCCACGGCAGAAGCGUUCACGUCGCGGCCCCUGUCAGAUUCUGGUGAAUCUGGGAAUUCUGCUGU [A10G C57G] the self-cleavage was 0.199.
GGGGGCCACGGCAGAAGCGUUCACGUAGCGGCCCCUGUCAGAUUCUGGUGAAUCUGCGAAUUCUGCUGU [A10G C27A] showed a self-cleavage of 0.857.
For GGGGGCCACGGCAGAAGCGUUCACGUGGCGGCCCCUGUCAGAUUCUGGUGAAUCUGCGAAUUCUGCUGU [A10G C27G], the self-cleavage was 0.199.
Work on GGGGGCCACGGCAGAAGCGUUCACCUCGCGGCCCCUGUCAGAUUCUGGUGAAUCUGCGAAUUCUGCUGU [A10G G25C] yielded a self-cleavage of 0.125.
GGGGGCCACGGCAGAAGCGUUCACGUCUCGGCCCCUGUCAGAUUCUGGUGAAUCUGCGAAUUCUGCUGU [A10G G28U] gave a self-cleavage of 0.142.
GGGGGCCACGGCAGAAGCGUUCACGUCACGGCCCCUGUCAGAUUCUGGUGAAUCUGCGAAUUCUGCUGU [A10G G28A] gave a self-cleavage of 0.254.
In the case of GGGGGCCACGGCAGAAGCGUUCACGUCGCGGCCCCUGUCAGAUUUUGGUGAAUCUGCGAAUUCUGCUGU [A10G C45U], the self-cleavage is reported as 0.901.
GGGGGCCACGGCAGAAGCGUUCACGUCGCGGCCCCUGUCAGAUUAUGGUGAAUCUGCGAAUUCUGCUGU [A10G C45A] gave a self-cleavage of 0.784.
Variant GGGGGCCACGGCAGAAUCGUUCACGUCGCGGCCCCUGUCAGAUUCUGGUGAAUCUGCGAAUUCUGCUGU [A10G G17U] has a self-cleavage of 0.106.
Variant GGGGGCCACGGCAGAAACGUUCACGUCGCGGCCCCUGUCAGAUUCUGGUGAAUCUGCGAAUUCUGCUGU [A10G G17A] has a self-cleavage of 0.132.
Work on GGGGGCCACGGCAGAAGCGUUCACGUCGCGGCACCUGUCAGAUUCUGGUGAAUCUGCGAAUUCUGCUGU [A10G C33A] yielded a self-cleavage of 0.926.
GGGGGCCACGGCAGAAGCCUUCACGUCGCGGCCCCUGUCAGAUUCUGGUGAAUCUGCGAAUUCUGCUGU [A10G G19C] showed a self-cleavage of 0.104.
Work on GGGGGCCACGGCAGAAGCUUUCACGUCGCGGCCCCUGUCAGAUUCUGGUGAAUCUGCGAAUUCUGCUGU [A10G G19U] yielded a self-cleavage of 0.162.
For GGGGGCCACGGCAGAAGCAUUCACGUCGCGGCCCCUGUCAGAUUCUGGUGAAUCUGCGAAUUCUGCUGU [A10G G19A], the self-cleavage was 0.157.
In the case of GGGGGCCACGGCAGAAGCGUUCACGUCGCGGCCACUGUCAGAUUCUGGUGAAUCUGCGAAUUCUGCUGU [A10G C34A], the self-cleavage is reported as 0.89.
With GGGGGCCACGGCAGAAGCGUUCACGUCGCGGCCGCUGUCAGAUUCUGGUGAAUCUGCGAAUUCUGCUGU [A10G C34G] the self-cleavage was 0.82.
GGGGGCCACGGCAGAAGCGUUCACGUCGGGGCCCCUGUCAGAUUCUGGUGAAUCUGCGAAUUCUGCUGU [A10G C29G] gave a self-cleavage of 0.225.
With GGGGGCCACGGCAGAAGCGUUCACGUCGCGGCCCCUGUCAGAUUCUGGUGAAUAUGCGAAUUCUGCUGU [A10G C54A] the self-cleavage was 0.527.
GGGGGCCACGGCAGAAGCGUUCACGUCGCGGCCCCUGUCAGAUUCUGGUGAAUUUGCGAAUUCUGCUGU [A10G C54U] gave a self-cleavage of 0.8.
With GGGGGCCACGGCAGAAGCGUUCACGUCGCGGCCCCUGUCAGAUUCUGGUGAAUGUGCGAAUUCUGCUGU [A10G C54G] the self-cleavage was 0.404.
GGGGGCCACGGCAGAAGCGUUCACGUCGCGGCCCCUGUCAGAUUCUGGUGAAUCUGCGAAUUCUGUUGU [A10G C66U] showed a self-cleavage of 0.645.
In the case of GGGGGCCACGGCAGAAGCGUUCACGUCGCGGCCCCUGUCAGAUUCUGGUGAAUCUGCGAAUUCUGGUGU [A10G C66G], the self-cleavage is reported as 0.35.
Variant GGGGGCCACGGCAGAAGCGUUCAGGUCGCGGCCCCUGUCAGAUUCUGGUGAAUCUGCGAAUUCUGCUGU [A10G C24G] has a self-cleavage of 0.297.
For GGGGGCCACGGCAGAAGCGUUCAAGUCGCGGCCCCUGUCAGAUUCUGGUGAAUCUGCGAAUUCUGCUGU [A10G C24A], the self-cleavage was 0.615.
Work on GGGGGCCACGGCAGAAGCGUUCAUGUCGCGGCCCCUGUCAGAUUCUGGUGAAUCUGCGAAUUCUGCUGU [A10G C24U] yielded a self-cleavage of 0.186.
In the case of GGGGGCCACGACAGAAGCGUUCACGUCGCGGCCCCUGUCAGAUUCUGGUGAAUCUGCGAAUUCUGCUGU [A10G G11A], the self-cleavage is reported as 0.143.
GGGGGCCACGUCAGAAGCGUUCACGUCGCGGCCCCUGUCAGAUUCUGGUGAAUCUGCGAAUUCUGCUGU [A10G G11U] gave a self-cleavage of 0.743.
Work on GGGGGCCACGCCAGAAGCGUUCACGUCGCGGCCCCUGUCAGAUUCUGGUGAAUCUGCGAAUUCUGCUGU [A10G G11C] yielded a self-cleavage of 0.79.
In the case of GGGGGCCACGGCAUAAGCGUUCACGUCGCGGCCCCUGUCAGAUUCUGGUGAAUCUGCGAAUUCUGCUGU [A10G G14U], the self-cleavage is reported as 0.12.
Variant GGGGGCCACGGCAAAAGCGUUCACGUCGCGGCCCCUGUCAGAUUCUGGUGAAUCUGCGAAUUCUGCUGU [A10G G14A] has a self-cleavage of 0.195.
Work on GGGGGCCACGGCAGAAGCGUUCACGUCGCGGCCCCUGUGAGAUUCUGGUGAAUCUGCGAAUUCUGCUGU [A10G C39G] yielded a self-cleavage of 0.595.
For GGGGGCCACGGCAGAAGCGUUCACGUCGCGGCCCCUGUUAGAUUCUGGUGAAUCUGCGAAUUCUGCUGU [A10G C39U], the self-cleavage was 0.633.
With GGGGGCCACGGCAGAAGCGUUCACGUCGCGGCCCCUGUAAGAUUCUGGUGAAUCUGCGAAUUCUGCUGU [A10G C39A] the self-cleavage was 0.42.
Work on GGGGGCCACGGCAGAAGCGUUCACGUCGCGGCCCCUGUCAGAUUCUGGUGAAUCUGCGAAUUGUGCUGU [A10G C63G] yielded a self-cleavage of 0.338.
GGGGGCCACGGCAGAAGCGUUCACGUCGCGGCCCCUGUCAGAUUCUGGUGAAUCUGCGAAUUAUGCUGU [A10G C63A] gave a self-cleavage of 0.253.
For GGGGGCCACGGCAGAAGCGUUCACGUCGCGGCCCCUGUCAGAUUCUGGUGAAUCUGCGAAUUUUGCUGU [A10G C63U], the self-cleavage was 0.615.
